Tests used:
[1] = molecular target: HA-tagged RON (Recepteur d'Origine Nantais, MST1R) stably expressed in A431 cells (human); test: two-colour single quantum dot tracking with two-state hidden Markov model; live A431^RON cells; 200 pM anti-HA-QD655 on HA-RON, then 50 pM QD605-conjugated EGF-biotin on endogenous EGFR; 34–36 °C, 20 frames per s; off-rate of hetero-interactions
[2] = molecular target: HA-tagged RON (Recepteur d'Origine Nantais, MST1R) stably expressed in A431 cells (human); test: two-colour single quantum dot tracking with two-state hidden Markov model; live A431^RON cells, no ligand; HA-RON labelled with a mixture of anti-HA-QD605 and anti-HA-QD655 (monovalent Fab); 34–36 °C, 20 frames per s; off-rate of RON/RON homo-interactions

Chain of HA-tagged RON (Recepteur d'Origine Nantais, MST1R) stably expressed in A431 cells (human) (Q04912 25-304 limits assumed, chain 1 of 2): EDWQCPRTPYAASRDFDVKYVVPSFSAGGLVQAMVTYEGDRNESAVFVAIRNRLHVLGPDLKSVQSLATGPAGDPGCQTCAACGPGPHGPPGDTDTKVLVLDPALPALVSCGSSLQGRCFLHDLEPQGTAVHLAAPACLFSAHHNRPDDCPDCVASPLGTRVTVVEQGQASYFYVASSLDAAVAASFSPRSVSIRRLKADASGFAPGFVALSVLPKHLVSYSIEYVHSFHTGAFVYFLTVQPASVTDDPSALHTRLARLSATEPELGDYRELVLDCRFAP
Chain of HA-tagged RON (Recepteur d'Origine Nantais, MST1R) stably expressed in A431 cells (human) (Q04912 310-1400 limits assumed, chain 2 of 2): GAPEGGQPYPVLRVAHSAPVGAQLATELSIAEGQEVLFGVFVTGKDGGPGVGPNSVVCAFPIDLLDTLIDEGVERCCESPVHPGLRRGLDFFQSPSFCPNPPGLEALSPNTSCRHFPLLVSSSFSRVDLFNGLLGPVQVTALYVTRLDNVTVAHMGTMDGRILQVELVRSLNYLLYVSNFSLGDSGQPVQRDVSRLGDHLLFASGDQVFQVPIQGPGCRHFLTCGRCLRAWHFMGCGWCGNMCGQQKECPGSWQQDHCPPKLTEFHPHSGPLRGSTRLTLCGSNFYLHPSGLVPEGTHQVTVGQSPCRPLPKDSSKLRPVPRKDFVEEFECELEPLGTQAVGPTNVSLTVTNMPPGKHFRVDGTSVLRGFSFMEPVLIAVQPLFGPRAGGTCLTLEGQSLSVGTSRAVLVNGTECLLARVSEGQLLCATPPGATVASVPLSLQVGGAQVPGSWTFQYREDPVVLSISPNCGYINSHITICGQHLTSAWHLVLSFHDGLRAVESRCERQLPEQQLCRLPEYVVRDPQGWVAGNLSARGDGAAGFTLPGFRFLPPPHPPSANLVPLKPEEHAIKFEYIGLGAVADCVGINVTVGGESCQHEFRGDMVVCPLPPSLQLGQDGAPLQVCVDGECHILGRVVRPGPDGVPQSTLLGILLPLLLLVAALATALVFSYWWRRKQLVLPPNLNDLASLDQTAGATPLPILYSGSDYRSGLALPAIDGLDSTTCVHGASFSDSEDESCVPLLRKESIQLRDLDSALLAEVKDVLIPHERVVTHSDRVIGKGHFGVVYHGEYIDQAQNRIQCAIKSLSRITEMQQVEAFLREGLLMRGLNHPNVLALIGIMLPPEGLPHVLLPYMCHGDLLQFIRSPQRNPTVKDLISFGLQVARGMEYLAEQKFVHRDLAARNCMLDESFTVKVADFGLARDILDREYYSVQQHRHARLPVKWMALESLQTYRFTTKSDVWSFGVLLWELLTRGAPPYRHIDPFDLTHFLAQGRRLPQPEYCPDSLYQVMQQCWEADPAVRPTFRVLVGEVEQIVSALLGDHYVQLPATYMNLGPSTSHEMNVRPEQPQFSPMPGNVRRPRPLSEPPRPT

Row | average lifetime [1] [s] | koff [1] [s⁻¹] | average lifetime [2] [s] | koff [2] [s⁻¹] | Substance
1 | 2 | 0.49 | – | – | EGF-bound EGFR (QD-conjugated EGF-biotin on endogenous EGFR of live A431^RON cells) (from UniProt P00533 25-1210) (complex)
2 | – | – | 5.5 | 0.18 | HA-tagged RON (Recepteur d'Origine Nantais, MST1R) stably expressed in A431 cells (receptor)
